# Target: wild type CFTR (cystic fibrosis transmembrane conductance regulator) chloride channel (human, UniProt P13569 1-1480, phosphorylated by PKA in the assay (50 units/ml PKA and 2 mM ATP in the cis solution); sites not listed for the assay)
# Experiment: cell-based or functional assay
# wild type CFTR (cystic fibrosis transmembrane conductance regulator) chloride channel, sequence (P13569 whole entry): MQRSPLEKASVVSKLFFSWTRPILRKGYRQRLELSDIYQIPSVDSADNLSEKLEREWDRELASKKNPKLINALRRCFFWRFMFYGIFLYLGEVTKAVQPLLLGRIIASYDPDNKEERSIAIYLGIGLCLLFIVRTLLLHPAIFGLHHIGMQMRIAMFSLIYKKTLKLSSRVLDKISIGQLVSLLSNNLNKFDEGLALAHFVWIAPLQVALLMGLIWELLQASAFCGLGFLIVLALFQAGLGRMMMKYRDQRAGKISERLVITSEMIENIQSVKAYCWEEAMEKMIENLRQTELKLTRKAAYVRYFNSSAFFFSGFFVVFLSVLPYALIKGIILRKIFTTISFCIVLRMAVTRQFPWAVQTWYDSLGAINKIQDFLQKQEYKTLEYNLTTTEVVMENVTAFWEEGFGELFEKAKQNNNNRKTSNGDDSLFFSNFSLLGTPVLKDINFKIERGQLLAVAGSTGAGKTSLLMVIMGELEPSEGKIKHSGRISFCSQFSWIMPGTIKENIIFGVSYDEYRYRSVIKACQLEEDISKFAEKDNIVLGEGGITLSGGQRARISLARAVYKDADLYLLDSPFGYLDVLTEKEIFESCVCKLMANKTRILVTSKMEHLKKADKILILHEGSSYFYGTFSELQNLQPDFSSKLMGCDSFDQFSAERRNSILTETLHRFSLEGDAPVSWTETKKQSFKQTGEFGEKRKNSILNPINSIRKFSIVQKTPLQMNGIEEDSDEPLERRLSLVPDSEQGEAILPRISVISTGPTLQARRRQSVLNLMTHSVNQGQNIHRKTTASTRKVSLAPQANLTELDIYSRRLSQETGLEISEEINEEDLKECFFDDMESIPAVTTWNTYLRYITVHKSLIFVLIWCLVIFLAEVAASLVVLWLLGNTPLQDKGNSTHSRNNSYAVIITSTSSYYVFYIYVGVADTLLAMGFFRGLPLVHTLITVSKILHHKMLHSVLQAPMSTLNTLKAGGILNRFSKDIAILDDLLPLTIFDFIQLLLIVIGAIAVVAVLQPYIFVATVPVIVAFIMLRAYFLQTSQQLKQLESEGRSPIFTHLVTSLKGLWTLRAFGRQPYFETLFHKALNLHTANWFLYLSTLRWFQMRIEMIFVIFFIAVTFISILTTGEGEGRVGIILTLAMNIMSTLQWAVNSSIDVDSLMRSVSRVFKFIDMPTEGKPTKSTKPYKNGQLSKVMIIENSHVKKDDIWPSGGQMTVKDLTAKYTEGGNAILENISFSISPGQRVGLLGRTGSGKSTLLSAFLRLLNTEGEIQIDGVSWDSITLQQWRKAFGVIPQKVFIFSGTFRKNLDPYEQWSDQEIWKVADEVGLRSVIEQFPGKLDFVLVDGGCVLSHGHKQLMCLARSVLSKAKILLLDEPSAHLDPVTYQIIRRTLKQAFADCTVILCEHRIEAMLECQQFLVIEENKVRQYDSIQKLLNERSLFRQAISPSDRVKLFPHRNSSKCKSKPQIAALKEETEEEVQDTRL
binder,measurement,value
GLEISEEINEEDLKECFFDDME [synthetic NEG2 peptide (22 amino acid peptide corresponding to CFTR amino acids 817-838)],open probability of single wt-CFTR channel in planar lipid bilayer,> 2 fold

# Reference: patent publication US20040121957A1 (CASE WESTERN RESERVE UNIVERSITY, published 2004)
